According to article doi:10.1101/2021.01.12.426394:
Blank lines part the entries; values can stand above or below the binder they belong to. Where no end group is shown, it is not given here.

Key:
[1] = target: honeybee tachykinin-related peptide receptor, FLAG-TRPR expressed in Sf21 cells (Apis mellifera); assay: competitive binding of a fluorescent ligand on cells
[2] = target: honeybee tachykinin-related peptide receptor, FLAG-TRPR expressed in HEK293 cells (Apis mellifera); assay: as above

IC50 [1]: 8.76 nM
IC50 [2]: 2.34 nM
B1: tachykinin-related peptide 2 (TRP2), unlabeled (peptide)
peptide: ALMGFQGVR-NH2

IC50 [1]: 34.9 nM
IC50 [2]: 6.29 nM
B2: tachykinin-related peptide 3 (TRP3), unlabeled (peptide)
peptide: APMGFQGMR-NH2
